Experimental findings from US20180230224A1 (KITE PHARMA, published 2018) are described below.

Assay [1] has as its target CD70 on NAMALWA and Raji cells (human) (UniProt P32970). Description: flow cytometry; NAMALWA cells stained with PE-conjugated anti-CD70 antibody; open histogram as control. (In general: Flow cytometry measures light scatter and fluorescence of single cells or particles in a stream.)
Assay [2] shares this target. Put plainly: flow cytometry; Raji cells (panel title cut to 'Raj'; panel order given in the legend paragraph 42) stained with PE-conjugated anti-CD70 antibody; open histogram as control.
Assay [3] has the same target. Put plainly: flow cytometry; MV4;11 cells stained with PE-conjugated anti-CD70 antibody; open histogram as control.
Assay [4] has the same target. Description: flow cytometry; U-937 cells stained with PE-conjugated anti-CD70 antibody; open histogram as control.
For assay [5] the target is unchanged. Put plainly: flow cytometry; EoL-1 cells stained with PE-conjugated anti-CD70 antibody; open histogram as control.
The target is the same in assay [6]. Put plainly: flow cytometry; Toledo cells stained with PE-conjugated anti-CD70 antibody; open histogram as control.
The target in assay [7] is T1, recombinant CD70-Fc (Sino Biological) (UniProt P32970 39-193, limits assumed).
T1 construct: Bought reagent; not shown: Fc part
T1 sequence (looked up): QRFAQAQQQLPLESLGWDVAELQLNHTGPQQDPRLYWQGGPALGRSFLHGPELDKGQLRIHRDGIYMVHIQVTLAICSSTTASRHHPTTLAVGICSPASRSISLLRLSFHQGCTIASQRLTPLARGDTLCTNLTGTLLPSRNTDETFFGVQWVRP
Put plainly: flow cytometry; donor 1 T cells transduced with the CAR, day 14 post stimulation, stained with recombinant CD70-Fc and goat anti-human IgG Fc PE; mock-transduced cells as control. As for the experimental part: Peripheral blood mononuclear cells (PBMCs) were isolated from two different healthy donor leukopaks (Hemacare) using Ficoll®-Paque density centrifugation according to the manufacturer's instructions. PBMCs were stimulated using OKT3 (Muromonab-CD3, 50 ng/ml, Miltenyi Biotec) in R10 media supplemented with IL-2 (300 IU/ml, Proleukin®, Prometheus® Therapeutics and Diagnostics). Forty-eight hours post-stimulation, cells were transduced using lentivirus containing the different CD70 CAR constructs at a multiplicity of infection (MOI) of 10. Cells were maintained at 0.5×10⁶-2.0×10⁶ cells/ml prior to use in activity assays.
At day 14 post-stimulation, transduced T cells were stained with recombinant CD70-Fc (Sino Biological) in stain buffer (BD Pharmingen) for 30 minutes at 4° C. Cells were then washed and stained with goat anti-human IgG Fc PE (Jackson ImmunoResearch) in stain buffer for 30 minutes at 4° C. Cells were then washed and resuspended in stain buffer with propidium iodide (BD Pharmingen) prior to data acquisition. All experiments were performed in two different donors.

For the molecule “anti-CD70 antibody conjugated to PE (BD Pharmingen)”, the percent of cells in the positive gate (number in the panel) in assay [1] is 100%; in assay [2] it was 100%; in assay [3] it was 43.1%; in assay [4], 96.6%; in assay [5], 64.6%; in assay [6] it was 99.9%.

B1: 6E9.1_C28T_4Bz (other)
chain: QVHLVQSGAEVKKPGASVRVSCKASGYTFTSYYLHWVRQAPGQGLEWMGIVDPSGGSTSYDQKFQGRFTMTRDTSTSTVYMELSSLRSEDTAVYYCARDYGDYVFDYWGQGTLVTVSSGGGGSGGGGSGGGGSQSVLTQPPSASGTPGQRVTISCSGSSSNIGTNTVNWYQQLPGTAPQLLIYINNQRPSGVPDRFSGSKSGTSASLAISGLQSEDEADYYCATWDDSLNGPVVGGGTKLTVLGAAALDNEKSNGTIIHVKGKHLCPSPLFPGPSKPFWVLVVVGGVLACYSLLVTVAFIIFWVRFSVVKRGRKKLLYIFKQPFMRPVQTTQEEDGCSCRFPEEEEGGCELRVKFSRSADAPAYQQGQNQLYNELNLGRREEYDVLDKRRGRDPEMGGKPRRKNPQEGLYNELQKDKMAEAYSEIGMKGERRRGKGHDGLYQGLSTATKDTYDALHMQALPPR
notes: Chimeric antigen receptor on lentivirus-transduced human T cells; 6E9 scFv, CD28T hinge/TM, 4-1BB, CD3 zeta; also called 28T-4Bz comprising a 6E9 scFv
As to B1, the “% CAR (+)” value in assay [7] was 4.48%.

B2: 1C8.1.001_C28T_4Bz (other)
chain: QVQLQESGPGLVKPSQTLSLTCTVSGDSIISGGYYWSWIRQHPGKGLEWIGYIFYSGSTDYNPSLKSRVTISVDTSKNQFSLKLSSVTAADTAVYYCARSGYSYALFDHWGQGTLVTVSSGGGGSGGGGSGGGGSDIQMTQSPSSLSASVGDRVTISCRASQFIGRYFNWYQQQPGKAPKVLIYAESSLQSGVPSRFSGSGSGTEFTLTISSLQPEDFARYYCQQSYSTPFTFGQGTKVEIKRAAALDNEKSNGTIIHVKGKHLCPSPLFPGPSKPFWVLVVVGGVLACYSLLVTVAFIIFWVRFSVVKRGRKKLLYIFKQPFMRPVQTTQEEDGCSCRFPEEEEGGCELRVKFSRSADAPAYQQGQNQLYNELNLGRREEYDVLDKRRGRDPEMGGKPRRKNPQEGLYNELQKDKMAEAYSEIGMKGERRRGKGHDGLYQGLSTATKDTYDALHMQALPPR
notes: Chimeric antigen receptor on lentivirus-transduced human T cells; 1C8 scFv, CD28T hinge/TM, 4-1BB, CD3 zeta; also called 28T-4Bz comprising a 1C8 scFv
For B2, the “% CAR (+)” value in assay [7] was found to be 0.27%.

B3: 6E9.1_C28T_28z (other)
chain: QVHLVQSGAEVKKPGASVRVSCKASGYTFTSYYLHWVRQAPGQGLEWMGIVDPSGGSTSYDQKFQGRFTMTRDTSTSTVYMELSSLRSEDTAVYYCARDYGDYVFDYWGQGTLVTVSSGGGGSGGGGSGGGGSQSVLTQPPSASGTPGQRVTISCSGSSSNIGTNTVNWYQQLPGTAPQLLIYINNQRPSGVPDRFSGSKSGTSASLAISGLQSEDEADYYCATWDDSLNGPVVGGGTKLTVLGAAALDNEKSNGTIIHVKGKHLCPSPLFPGPSKPFWVLVVVGGVLACYSLLVTVAFIIFWVRSKRSRLLHSDYMNMTPRRPGPTRKHYQPYAPPRDFAAYRSRVKFSRSADAPAYQQGQNQLYNELNLGRREEYDVLDKRRGRDPEMGGKPRRKNPQEGLYNELQKDKMAEAYSEIGMKGERRRGKGHDGLYQGLSTATKDTYDALHMQALPPR
notes: Chimeric antigen receptor on lentivirus-transduced human T cells; also called 28T-28z comprising a 6E9 scFv
B3: the “% CAR (+)” value in assay [7] is 4.45%.

B4: 8G1.1_C28T_28z (other)
chain: QEQLVESGGGVVQPGRSLRLSCAASGFTFSSYGMHWVRQAPGKGLEWVAVTWYDGSNKYYGDSVKGRFTISRDNSKNTLYLQMNSLRAEDTAVYYCARDLLRGVKGYAMDVWGQGTTVTVSSGGGGSGGGGSGGGGSEIVLTQSPGTLSLSPGERATLSCRASQSLRRIYLAWYQQKPGQAPRLLIYDVFDRATGIPDRFSGGGSGTDFTLTISRLEPEDFAVYYCQQYSDSPFTFGPGTKVDIKRAAALDNEKSNGTIIHVKGKHLCPSPLFPGPSKPFWVLVVVGGVLACYSLLVTVAFIIFWVRSKRSRLLHSDYMNMTPRRPGPTRKHYQPYAPPRDFAAYRSRVKFSRSADAPAYQQGQNQLYNELNLGRREEYDVLDKRRGRDPEMGGKPRRKNPQEGLYNELQKDKMAEAYSEIGMKGERRRGKGHDGLYQGLSTATKDTYDALHMQALPPR
notes: also called CD70 CAR C3L; 28T-28z comprising an 8G1 scFv
Turning to B4, the “% CAR (+)” value in assay [7] amounted to 42.2%.

B5: 1C8.1.001_C28T_28z (other)
chain: QVQLQESGPGLVKPSQTLSLTCTVSGDSIISGGYYWSWIRQHPGKGLEWIGYIFYSGSTDYNPSLKSRVTISVDTSKNQFSLKLSSVTAADTAVYYCARSGYSYALFDHWGQGTLVTVSSGGGGSGGGGSGGGGSDIQMTQSPSSLSASVGDRVTISCRASQFIGRYFNWYQQQPGKAPKVLIYAESSLQSGVPSRFSGSGSGTEFTLTISSLQPEDFARYYCQQSYSTPFTFGQGTKVEIKRAAALDNEKSNGTIIHVKGKHLCPSPLFPGPSKPFWVLVVVGGVLACYSLLVTVAFIIFWVRSKRSRLLHSDYMNMTPRRPGPTRKHYQPYAPPRDFAAYRSRVKFSRSADAPAYQQGQNQLYNELNLGRREEYDVLDKRRGRDPEMGGKPRRKNPQEGLYNELQKDKMAEAYSEIGMKGERRRGKGHDGLYQGLSTATKDTYDALHMQALPPR
notes: Chimeric antigen receptor on lentivirus-transduced human T cells; also called 28T-28z comprising a 1C8 scFv
Regarding B5, the “% CAR (+)” value in assay [7] came out at 25.4%.

B6: 8G1.1_C28T_4Bz (other)
chain: QEQLVESGGGVVQPGRSLRLSCAASGFTFSSYGMHWVRQAPGKGLEWVAVTWYDGSNKYYGDSVKGRFTISRDNSKNTLYLQMNSLRAEDTAVYYCARDLLRGVKGYAMDVWGQGTTVTVSSGGGGSGGGGSGGGGSEIVLTQSPGTLSLSPGERATLSCRASQSLRRIYLAWYQQKPGQAPRLLIYDVFDRATGIPDRFSGGGSGTDFTLTISRLEPEDFAVYYCQQYSDSPFTFGPGTKVDIKRAAALDNEKSNGTIIHVKGKHLCPSPLFPGPSKPFWVLVVVGGVLACYSLLVTVAFIIFWVRFSVVKRGRKKLLYIFKQPFMRPVQTTQEEDGCSCRFPEEEEGGCELRVKFSRSADAPAYQQGQNQLYNELNLGRREEYDVLDKRRGRDPEMGGKPRRKNPQEGLYNELQKDKMAEAYSEIGMKGERRRGKGHDGLYQGLSTATKDTYDALHMQALPPR
notes: Chimeric antigen receptor on lentivirus-transduced human T cells; 8G1 scFv, CD28T hinge/TM, 4-1BB, CD3 zeta; also called 28T-4Bz comprising an 8G1 scFv
For B6, in assay [7], the “% CAR (+)” value stood at 49.8%.
